Assay in all cases: native MS
Series [1] concerns the molecule itself.
Series [2] concerns the molecule itself. The source holds these as a separate data set.
A further series addresses δδ′ subcomplex (E. coli, UniProt P28630 1-343; P28631 1-334).

Where two headings read alike, the source gives them in different places.

B1: γ subunit (DnaX) of the E. coli clamp loader (natural protein, UniProt P06710-2 1-431, looked up)
chain: MSYQVLARKWRPQTFADVVGQEHVLTALANGLSLGRIHHAYLFSGTRGVGKTSIARLLAKGLNCETGITATPCGVCDNCREIEQGRFVDLIEIDAASRTKVEDTRDLLDNVQYAPARGRFKVYLIDEVHMLSRHSFNALLKTLEEPPEHVKFLLATTDPQKLPVTILSRCLQFHLKALDVEQIRHQLEHILNEEHIAHEPRALQLLARAAEGSLRDALSLTDQAIASGDGQVSTQAVSAMLGTLDDDQALSLVEAMVEANGERVMALINEAAARGIEWEALLVEMLGLLHRIAMVQLSPAALGNDMAAIELRMRELARTIPPTDIQLYYQTLLIGRKELPYAPDRRMGVEMTLLRALAFHPRMPLPEPEVPRQSFAPVAPTAVMTPTQVPPQPQSAPQQAPTVPLPETTSQVLAARQQLQRVQGATKAKKE
Take B1: the “stoichiometry N” value in the series “native MS [1]” was 4; in the series “native MS [2]” it was 3. For the same molecule, in the series with δδ′ subcomplex, the binding result is “binds”.
